Experimental data reported in IntAct's records for PubMed 29997244.

B1: DnaJ homolog subfamily C member 5 (Homo sapiens), Q9H3Z4 (parent)
chain: MADQRQRSLSTSGESLYHVLGLDKNATSDDIKKSYRKLALKYHPDKNPDNPEAADKFKEINNAHAILTDATKRNIYDKYGSLGLYVAEQFGEENVNTYFVLSSWWAKALFVFCGLLTCCYCCCCLCCCFNCCCGKCKPKAPEGEETEFYVSPEDLEAQLQSDEREATDTPIVIQPASATETTQLTADSHPSYHTDGFN
B2: DnaJ homolog subfamily C member 5 (Homo sapiens), Q9H3Z4 (parent)
chain: B1 chain
partner: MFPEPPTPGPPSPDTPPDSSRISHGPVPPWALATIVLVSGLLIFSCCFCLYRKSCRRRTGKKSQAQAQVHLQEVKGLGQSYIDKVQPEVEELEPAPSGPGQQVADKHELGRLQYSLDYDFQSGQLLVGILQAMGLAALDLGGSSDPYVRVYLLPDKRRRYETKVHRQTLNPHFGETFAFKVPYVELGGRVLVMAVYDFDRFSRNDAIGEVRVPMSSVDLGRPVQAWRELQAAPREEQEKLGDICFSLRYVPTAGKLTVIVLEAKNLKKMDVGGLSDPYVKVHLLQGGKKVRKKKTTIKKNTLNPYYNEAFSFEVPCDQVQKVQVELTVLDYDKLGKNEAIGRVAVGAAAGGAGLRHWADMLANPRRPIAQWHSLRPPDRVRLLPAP
B3: DnaJ homolog subfamily C member 5 (Homo sapiens), Q9H3Z4 (parent)
chain: B1 chain
partner: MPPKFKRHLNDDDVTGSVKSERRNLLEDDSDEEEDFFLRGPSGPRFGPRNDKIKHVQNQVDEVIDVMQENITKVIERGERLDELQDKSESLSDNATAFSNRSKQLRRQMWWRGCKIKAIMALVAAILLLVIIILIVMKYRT
B4: DnaJ homolog subfamily C member 5 (Homo sapiens), Q9H3Z4 (parent)
chain: B1 chain
partner: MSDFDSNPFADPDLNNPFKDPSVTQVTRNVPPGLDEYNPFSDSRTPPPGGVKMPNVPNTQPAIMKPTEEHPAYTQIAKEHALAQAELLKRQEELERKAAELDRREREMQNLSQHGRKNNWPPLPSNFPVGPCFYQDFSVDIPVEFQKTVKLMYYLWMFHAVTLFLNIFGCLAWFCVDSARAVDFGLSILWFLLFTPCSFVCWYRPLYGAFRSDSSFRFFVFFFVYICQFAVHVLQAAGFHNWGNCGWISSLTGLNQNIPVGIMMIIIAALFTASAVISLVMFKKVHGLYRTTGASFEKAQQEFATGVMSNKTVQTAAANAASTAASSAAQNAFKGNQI
B5: DnaJ homolog subfamily C member 5 (Homo sapiens), Q9H3Z4 (parent)
chain: B1 chain
partner: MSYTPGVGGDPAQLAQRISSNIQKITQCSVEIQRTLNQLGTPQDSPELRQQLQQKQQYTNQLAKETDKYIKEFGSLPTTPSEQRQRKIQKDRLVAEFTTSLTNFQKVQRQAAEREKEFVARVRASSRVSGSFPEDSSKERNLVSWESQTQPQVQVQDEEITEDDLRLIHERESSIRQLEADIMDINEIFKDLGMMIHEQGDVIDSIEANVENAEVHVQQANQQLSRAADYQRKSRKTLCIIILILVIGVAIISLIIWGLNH
B6: DnaJ homolog subfamily C member 5 (Homo sapiens), Q9H3Z4 (parent)
chain: B1 chain
partner: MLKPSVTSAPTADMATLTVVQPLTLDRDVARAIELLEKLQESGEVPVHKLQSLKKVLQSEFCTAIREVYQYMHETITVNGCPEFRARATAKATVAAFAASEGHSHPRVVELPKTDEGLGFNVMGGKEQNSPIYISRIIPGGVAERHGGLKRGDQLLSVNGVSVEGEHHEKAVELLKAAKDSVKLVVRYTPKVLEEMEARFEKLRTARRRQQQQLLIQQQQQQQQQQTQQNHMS

Variants of: B1
Conditions: with zdh17_human ZDHHC17, Q8IUH5
Chain of zdh17_human ZDHHC17, Q8IUH5 (Q8IUH5 whole entry): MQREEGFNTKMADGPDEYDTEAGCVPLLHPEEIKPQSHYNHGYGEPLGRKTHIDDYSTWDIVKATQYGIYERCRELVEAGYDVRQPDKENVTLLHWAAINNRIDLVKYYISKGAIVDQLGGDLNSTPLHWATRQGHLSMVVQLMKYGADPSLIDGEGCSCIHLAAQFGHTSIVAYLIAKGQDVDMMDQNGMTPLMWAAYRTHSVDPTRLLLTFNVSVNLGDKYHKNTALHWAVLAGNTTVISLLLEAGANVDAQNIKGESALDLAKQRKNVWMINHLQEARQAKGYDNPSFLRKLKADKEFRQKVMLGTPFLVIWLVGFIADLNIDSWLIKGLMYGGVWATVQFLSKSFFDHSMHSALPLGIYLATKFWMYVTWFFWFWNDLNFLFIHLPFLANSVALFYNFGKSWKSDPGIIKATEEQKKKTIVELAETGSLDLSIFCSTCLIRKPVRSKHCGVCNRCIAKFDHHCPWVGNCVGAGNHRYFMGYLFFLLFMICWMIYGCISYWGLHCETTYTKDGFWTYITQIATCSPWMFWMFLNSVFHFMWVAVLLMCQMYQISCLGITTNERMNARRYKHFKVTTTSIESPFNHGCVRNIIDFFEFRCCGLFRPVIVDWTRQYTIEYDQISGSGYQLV

Variant | effect of a mutation on the interaction
L115R | increasing interaction strength

Variants of: B1
Conditions: with ap2b1_human AP2B1, P63010
Chain of ap2b1_human AP2B1, P63010 (P63010 whole entry): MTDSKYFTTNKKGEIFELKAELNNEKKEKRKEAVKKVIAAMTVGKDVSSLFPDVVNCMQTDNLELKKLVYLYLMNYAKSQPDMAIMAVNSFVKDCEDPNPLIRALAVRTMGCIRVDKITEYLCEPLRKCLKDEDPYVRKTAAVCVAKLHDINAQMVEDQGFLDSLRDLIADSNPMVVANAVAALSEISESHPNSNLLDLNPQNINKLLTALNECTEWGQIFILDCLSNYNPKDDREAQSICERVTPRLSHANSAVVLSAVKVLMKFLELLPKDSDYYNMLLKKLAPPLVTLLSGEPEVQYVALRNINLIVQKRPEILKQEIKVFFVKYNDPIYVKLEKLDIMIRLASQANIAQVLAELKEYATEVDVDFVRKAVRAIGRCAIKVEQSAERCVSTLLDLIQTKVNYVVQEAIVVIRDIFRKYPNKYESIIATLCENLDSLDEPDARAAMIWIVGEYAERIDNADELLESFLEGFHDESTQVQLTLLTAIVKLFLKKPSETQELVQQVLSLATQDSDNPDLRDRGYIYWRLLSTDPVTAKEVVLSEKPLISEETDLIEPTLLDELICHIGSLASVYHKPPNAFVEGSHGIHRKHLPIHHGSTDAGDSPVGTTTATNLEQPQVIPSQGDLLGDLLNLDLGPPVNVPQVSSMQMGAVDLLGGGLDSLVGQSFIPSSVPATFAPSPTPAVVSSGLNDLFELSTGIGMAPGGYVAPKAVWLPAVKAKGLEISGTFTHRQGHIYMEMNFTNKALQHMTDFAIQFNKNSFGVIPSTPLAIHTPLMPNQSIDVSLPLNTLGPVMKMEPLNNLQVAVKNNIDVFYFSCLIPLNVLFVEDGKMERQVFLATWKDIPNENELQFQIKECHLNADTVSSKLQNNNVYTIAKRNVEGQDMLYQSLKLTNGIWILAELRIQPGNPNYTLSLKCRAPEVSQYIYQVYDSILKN

Variant | effect of a mutation on the interaction
L115R | with no effect

Variants of: B1
Conditions: with caps1_human CADPS

Variant | effect of a mutation on the interaction
L115R | with no effect

Variants of: B1
Conditions: with cskp_human CASK

Variant | effect of a mutation on the interaction
L115R | increasing interaction strength

Variants of: B1
Conditions: with lipa1_human PPFIA1, Q13136
Chain of lipa1_human PPFIA1, Q13136 (Q13136 whole entry): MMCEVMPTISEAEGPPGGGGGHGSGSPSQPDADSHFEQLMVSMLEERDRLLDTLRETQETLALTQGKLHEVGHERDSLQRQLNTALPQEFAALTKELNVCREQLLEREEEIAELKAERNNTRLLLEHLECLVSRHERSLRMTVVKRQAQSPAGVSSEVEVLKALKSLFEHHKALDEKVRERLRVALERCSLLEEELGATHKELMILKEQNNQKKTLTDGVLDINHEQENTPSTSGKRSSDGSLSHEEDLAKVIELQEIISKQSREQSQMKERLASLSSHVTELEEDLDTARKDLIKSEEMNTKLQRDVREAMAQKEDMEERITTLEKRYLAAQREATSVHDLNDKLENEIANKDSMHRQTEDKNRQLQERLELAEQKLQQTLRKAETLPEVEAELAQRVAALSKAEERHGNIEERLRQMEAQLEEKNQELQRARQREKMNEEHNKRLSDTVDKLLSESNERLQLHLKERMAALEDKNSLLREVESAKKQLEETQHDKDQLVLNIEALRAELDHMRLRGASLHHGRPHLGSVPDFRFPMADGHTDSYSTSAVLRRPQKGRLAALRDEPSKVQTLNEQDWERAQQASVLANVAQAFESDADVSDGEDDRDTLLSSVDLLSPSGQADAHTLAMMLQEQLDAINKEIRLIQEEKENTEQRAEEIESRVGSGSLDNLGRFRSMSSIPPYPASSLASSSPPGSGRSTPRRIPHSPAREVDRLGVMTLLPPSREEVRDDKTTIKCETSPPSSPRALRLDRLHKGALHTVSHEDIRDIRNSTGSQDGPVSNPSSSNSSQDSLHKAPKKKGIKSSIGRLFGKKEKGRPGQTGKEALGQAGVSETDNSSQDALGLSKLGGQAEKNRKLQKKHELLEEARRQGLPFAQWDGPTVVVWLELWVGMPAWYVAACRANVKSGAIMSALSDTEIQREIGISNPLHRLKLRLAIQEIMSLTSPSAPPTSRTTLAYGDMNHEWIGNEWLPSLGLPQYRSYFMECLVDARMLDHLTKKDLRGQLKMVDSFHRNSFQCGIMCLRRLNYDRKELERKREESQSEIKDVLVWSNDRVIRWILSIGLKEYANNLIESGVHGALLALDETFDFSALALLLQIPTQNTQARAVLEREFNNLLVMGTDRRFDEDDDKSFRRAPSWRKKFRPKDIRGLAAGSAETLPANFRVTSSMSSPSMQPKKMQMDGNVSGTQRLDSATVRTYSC

Variant | effect of a mutation on the interaction
L115R | with no effect

Variants of: B1
Conditions: with lipa4_human PPFIA4, O75335

Variant | effect of a mutation on the interaction
L115R | increasing interaction strength

Variants of: B1
Conditions: with rabx5_human RABGEF1, Q9UJ41

Variant | effect of a mutation on the interaction
L115R | decreasing interaction strength

Variants of: B1
Conditions: with sh3g3_human SH3GL3, Q99963
Chain of sh3g3_human SH3GL3, Q99963 (Q99963 whole entry): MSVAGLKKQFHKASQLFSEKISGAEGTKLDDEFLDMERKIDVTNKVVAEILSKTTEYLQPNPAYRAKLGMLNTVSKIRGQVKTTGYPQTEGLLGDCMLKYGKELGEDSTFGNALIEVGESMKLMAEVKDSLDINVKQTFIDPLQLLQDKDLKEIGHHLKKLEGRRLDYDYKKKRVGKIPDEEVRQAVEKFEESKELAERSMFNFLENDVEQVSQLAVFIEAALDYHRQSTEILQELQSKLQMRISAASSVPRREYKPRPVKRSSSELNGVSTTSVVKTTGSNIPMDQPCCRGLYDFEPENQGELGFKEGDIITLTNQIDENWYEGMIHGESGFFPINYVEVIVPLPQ

Variant | effect of a mutation on the interaction
L115R | with no effect

Variants of: B1
Conditions: with snp29_human SNAP29, O95721

Variant | effect of a mutation on the interaction
L115R | with no effect

Variants of: B1
Conditions: with syua_human SNCA

Variant | effect of a mutation on the interaction
L115R | with no effect

Variants of: B1
Conditions: with zdh17_human ZDHHC17, Q8IUH5
Remark: another data set of the same source

Variant | effect of a mutation on the interaction
L115R | decreasing interaction strength

Variants of: B1
Conditions: with grm8_human GRM8, O00222
Chain of grm8_human GRM8, O00222 (O00222 whole entry): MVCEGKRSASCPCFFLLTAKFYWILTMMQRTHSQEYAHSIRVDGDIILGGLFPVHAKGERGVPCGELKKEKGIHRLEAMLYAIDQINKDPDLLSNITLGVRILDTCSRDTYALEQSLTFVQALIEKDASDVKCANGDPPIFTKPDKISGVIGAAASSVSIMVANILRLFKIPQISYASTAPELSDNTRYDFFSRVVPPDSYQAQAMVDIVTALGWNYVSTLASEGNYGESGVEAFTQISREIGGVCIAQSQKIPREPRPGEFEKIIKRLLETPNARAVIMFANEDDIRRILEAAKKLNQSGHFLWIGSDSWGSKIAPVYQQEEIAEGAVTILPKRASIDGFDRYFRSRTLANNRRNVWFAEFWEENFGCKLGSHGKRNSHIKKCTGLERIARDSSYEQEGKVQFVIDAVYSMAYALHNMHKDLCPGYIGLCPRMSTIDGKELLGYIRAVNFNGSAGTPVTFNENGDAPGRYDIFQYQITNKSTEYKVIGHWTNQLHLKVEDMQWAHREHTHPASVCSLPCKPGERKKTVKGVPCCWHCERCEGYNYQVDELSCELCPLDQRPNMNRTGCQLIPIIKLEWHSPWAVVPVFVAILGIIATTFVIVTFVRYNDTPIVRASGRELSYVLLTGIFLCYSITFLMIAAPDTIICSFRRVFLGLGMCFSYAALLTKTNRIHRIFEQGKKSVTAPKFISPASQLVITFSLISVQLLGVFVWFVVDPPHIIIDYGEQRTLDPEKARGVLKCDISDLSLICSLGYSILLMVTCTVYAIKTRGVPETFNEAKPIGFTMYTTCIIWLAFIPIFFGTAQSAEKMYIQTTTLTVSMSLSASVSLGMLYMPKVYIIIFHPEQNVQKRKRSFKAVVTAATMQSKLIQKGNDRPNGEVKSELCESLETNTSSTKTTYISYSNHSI

Variant | effect of a mutation on the interaction
L115R | decreasing interaction strength

Variants of: B1
Conditions: with nrx3b_human NRXN3, Q9HDB5
Chain of nrx3b_human NRXN3, Q9HDB5 (Q9HDB5 whole entry): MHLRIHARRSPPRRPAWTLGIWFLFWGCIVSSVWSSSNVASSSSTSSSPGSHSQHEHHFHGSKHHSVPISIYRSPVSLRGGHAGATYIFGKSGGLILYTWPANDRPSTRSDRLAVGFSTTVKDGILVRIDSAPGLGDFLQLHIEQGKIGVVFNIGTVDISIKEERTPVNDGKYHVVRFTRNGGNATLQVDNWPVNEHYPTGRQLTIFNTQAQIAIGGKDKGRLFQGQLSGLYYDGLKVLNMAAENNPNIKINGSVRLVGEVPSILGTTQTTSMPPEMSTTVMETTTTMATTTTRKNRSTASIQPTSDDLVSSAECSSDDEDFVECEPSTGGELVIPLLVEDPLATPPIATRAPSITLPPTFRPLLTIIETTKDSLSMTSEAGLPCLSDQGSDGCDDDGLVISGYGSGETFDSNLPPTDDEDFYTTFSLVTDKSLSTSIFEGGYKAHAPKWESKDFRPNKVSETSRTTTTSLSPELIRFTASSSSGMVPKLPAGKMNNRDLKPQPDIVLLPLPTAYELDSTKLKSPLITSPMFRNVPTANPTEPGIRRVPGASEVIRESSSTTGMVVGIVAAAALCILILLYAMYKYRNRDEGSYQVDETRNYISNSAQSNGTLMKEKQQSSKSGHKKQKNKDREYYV

Variant | effect of a mutation on the interaction
L115R | decreasing interaction strength

Variants of: B1
Conditions: with syph_human SYP

Variant | effect of a mutation on the interaction
L115R | decreasing interaction strength

Variants of: B1
Conditions: with syt1_human SYT1, P21579

Variant | effect of a mutation on the interaction
L115R | decreasing interaction strength

Variants of: B1
Conditions: with vamp2_human VAMP2, P63027
Chain of vamp2_human VAMP2, P63027 (P63027 whole entry): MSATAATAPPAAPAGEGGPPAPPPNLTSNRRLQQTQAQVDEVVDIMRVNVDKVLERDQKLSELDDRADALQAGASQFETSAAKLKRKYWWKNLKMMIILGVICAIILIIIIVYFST

Variant | effect of a mutation on the interaction
L115R | decreasing interaction strength

Variants of: B1
Conditions: with vamp3_human VAMP3, Q15836
Chain of vamp3_human VAMP3, Q15836 (Q15836 whole entry): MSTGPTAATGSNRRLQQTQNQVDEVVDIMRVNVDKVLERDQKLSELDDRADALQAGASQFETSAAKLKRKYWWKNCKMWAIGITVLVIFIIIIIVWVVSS

Variant | effect of a mutation on the interaction
L115R | decreasing interaction strength

Variants of: B1
Conditions: with ap2a1_human AP2A1, O95782

Variant | effect of a mutation on the interaction
L115R | with no effect

Variants of: B1
Conditions: with ap2s1_human AP2S1, P53680
Chain of ap2s1_human AP2S1, P53680 (P53680 whole entry): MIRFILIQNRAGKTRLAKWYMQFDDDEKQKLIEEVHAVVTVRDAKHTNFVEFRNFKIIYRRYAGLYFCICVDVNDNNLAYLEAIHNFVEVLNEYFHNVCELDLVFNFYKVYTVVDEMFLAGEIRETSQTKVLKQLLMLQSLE

Variant | effect of a mutation on the interaction
L115R | with no effect

Variants of: B2
Conditions: with syt5_human SYT5, O00445

Variant | effect of a mutation on the interaction
L115R | with no effect

Variants of: B3
Conditions: with vamp4_human VAMP4, O75379

Variant | effect of a mutation on the interaction
L115R | with no effect

Variants of: B4
Conditions: with scam1_human SCAMP1, O15126

Variant | effect of a mutation on the interaction
L115R | with no effect

Variants of: B5
Conditions: with stx7_human STX7, O15400

Variant | effect of a mutation on the interaction
L115R | decreasing interaction strength

Variants of: B6
Conditions: with lin7a_human LIN7A

Variant | effect of a mutation on the interaction
L115R | with no effect
